In patent US20130072665A1:
Blank lines part the entries; values can stand above or below the substance they belong to.

Key:
[1] = biological target: cynomolgus monkey PCSK9 (cynomolgus monkey); assay: KinExA solution equilibrium
[2] = biological target: cynomolgus monkey PCSK9 (cynomolgus monkey); assay: BIAcore, antibody immobilised, pH 7.4
[3] = biological target: 31H4, anti-PCSK9 huIgG4; assay: KinExA solution equilibrium, % free 31H4.1 against [cPCSK9]; curve with diamonds; 10 pM or 100 pM 31H4 series not labelled
[4] = biological target: human PCSK9 (proprotein convertase subtilisin kexin type 9) (human) (UniProt Q8NBP7); assay: BIAcore solution equilibrium, pH 5.5
[5] = biological target: human PCSK9 (proprotein convertase subtilisin kexin type 9) (human) (UniProt Q8NBP7); assay: BIAcore solution equilibrium, pH 6.0
[6] = biological target: human PCSK9 (proprotein convertase subtilisin kexin type 9) (human) (UniProt Q8NBP7); assay: BIAcore solution equilibrium, pH 7.4
[7] = biological target: cynomolgus monkey PCSK9 (cynomolgus monkey); assay: BIAcore solution equilibrium, column To Cyno PCSK9

Sequence of 31H4, anti-PCSK9 huIgG4 (heavy, as listed by the source, chain 1 of 2): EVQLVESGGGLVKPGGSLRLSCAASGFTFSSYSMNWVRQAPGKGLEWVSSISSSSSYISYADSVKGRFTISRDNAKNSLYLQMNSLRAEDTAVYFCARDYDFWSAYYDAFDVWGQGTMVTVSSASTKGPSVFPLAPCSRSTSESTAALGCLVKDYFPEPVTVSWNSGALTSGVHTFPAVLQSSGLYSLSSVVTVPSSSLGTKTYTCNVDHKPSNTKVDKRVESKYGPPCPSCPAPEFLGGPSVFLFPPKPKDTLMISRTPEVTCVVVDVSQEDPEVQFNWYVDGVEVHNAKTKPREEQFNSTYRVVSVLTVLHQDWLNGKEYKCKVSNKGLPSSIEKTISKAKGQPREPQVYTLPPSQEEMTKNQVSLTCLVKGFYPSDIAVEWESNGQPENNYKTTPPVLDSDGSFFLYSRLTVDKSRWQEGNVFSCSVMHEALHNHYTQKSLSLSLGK
Sequence of 31H4, anti-PCSK9 huIgG4 (light, as listed by the source, chain 2 of 2): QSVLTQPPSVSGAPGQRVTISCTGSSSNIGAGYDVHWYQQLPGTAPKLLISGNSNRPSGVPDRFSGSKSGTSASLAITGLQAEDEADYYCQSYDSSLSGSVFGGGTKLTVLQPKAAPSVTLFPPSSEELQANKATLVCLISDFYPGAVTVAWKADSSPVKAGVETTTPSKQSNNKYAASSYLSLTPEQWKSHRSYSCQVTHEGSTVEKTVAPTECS

Kd [1]: 2 pM
Kd [2]: 190 pM
Substance: 31H4, anti-PCSK9 huIgG4 (antibody)

IC50 (read off the curve) [3]: 10 pM
Substance: cynomolgus monkey PCSK9 (from UniProt A0A7N9D9N8 150-747) (enzyme)

Kd [4]: 28 pM
Kd [5]: 6 pM
Kd [6]: 19 pM
Kd [7]: 8 pM
Substance: AMG145 (antibody)
